In patent publication US20220119522A1 (DENALI THERAPEUTICS, published 2022):
Read-outs that look alike come from different tables or passages of the source.

T1: human soluble TREM2 (sTREM2) (human, UniProt Q9NZC2 19-157, limits assumed)
T1 construct: Native shed sTREM2; also called sTREM2 in Human CSF; sTREM2 in huTrem2 KI mouse plasma
T1 sequence: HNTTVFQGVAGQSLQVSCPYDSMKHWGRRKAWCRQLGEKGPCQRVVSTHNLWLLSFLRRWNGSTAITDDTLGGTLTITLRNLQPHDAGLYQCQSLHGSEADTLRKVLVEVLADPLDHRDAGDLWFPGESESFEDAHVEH

T2: His-tagged human TREM2 ECD (human, UniProt Q9NZC2 19-172)
T2 construct: Biacore and HDX say only recombinant human TREM2 (ECD); also called recombinant human TREM2; hTREM2
T2 sequence: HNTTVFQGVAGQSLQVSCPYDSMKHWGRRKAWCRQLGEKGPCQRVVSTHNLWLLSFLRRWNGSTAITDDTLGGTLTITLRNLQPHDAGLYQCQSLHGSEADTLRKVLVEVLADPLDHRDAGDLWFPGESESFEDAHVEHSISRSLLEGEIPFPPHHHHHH

T3: human TREM2 on the cell surface (human, UniProt Q9NZC2 19-230)
T3 construct: also called surface TREM2; TREM2 expressed in HEK293-H6 cells
T3 sequence: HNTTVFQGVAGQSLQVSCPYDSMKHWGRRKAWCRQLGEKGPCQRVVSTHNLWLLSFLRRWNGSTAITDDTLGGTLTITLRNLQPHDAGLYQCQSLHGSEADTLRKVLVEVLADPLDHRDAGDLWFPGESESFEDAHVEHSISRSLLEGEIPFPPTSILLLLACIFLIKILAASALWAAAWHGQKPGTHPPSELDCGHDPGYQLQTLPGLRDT


How the values were obtained:
[1] = target: T1, human soluble TREM2 (sTREM2); test: MSD assay: sTREM2 captured from healthy human CSF, sulfo-tagged antibody titrated
Protocol: (§1) The affinity of anti-TREM2 antibodies to human TREM2 and cynomolgus TREM2 were measured by Biacore (described in Example 1). The potency of anti-TREM2 antibodies were measured in healthy human volunteer CSF samples (Innovative Research) and healthy cynomolgus monkey CSF samples (Worldwide Primates), by MSD assay. The potency of each antibody was determined by its EC50. Briefly, MSD GOLD 96-well small spot streptavidin plates (MSD, Cat. No. L45SA) coated with capture antibody (biotinylated goat anti-human TREM2, R&D Systems, Cat. No. BAF1828) was incubated with biofluid samples diluted 1:3 in Assay Buffer (25% (v/v) MSD Blocker A (MSD, Cat. No. R93BA-A), 75% (v/v) TBST) for one hour at room temperature. After rinsing the wells with TBST, sulfo-tagged anti-TREM2 antibody was added in a serial dilution (4×dilution over 11 points) to the wells of the plate and incubated for one hour at room temperature. The wells were washed with TBST, and MSD Read Buffer (MSD, Cat. No. R92TC-3) was added to the wells. Signal from the samples were measured using an MSD Meso Sector 5600 device. EC50 values for each antibody was determined by four-parameter variable slope non-linear regression. The variable regions of reference antibody #1 are represented by SEQ ID NOS:344 and 345. The variable regions of reference antibody #2 are represented by SEQ ID NOS:346 and 347. The variable regions of reference antibody #3 are represented by SEQ ID NOS:348 and 349.

[2] = target: T4, cynomolgus soluble TREM2 (sTREM2) (cynomolgus); test: MSD assay: sTREM2 captured from healthy cynomolgus CSF, sulfo-tagged antibody titrated
T4 construct: also called sTREM2 in Cyno CSF
Protocol: as §1

[3] = target: T5, recombinant cynomolgus TREM2 ECD (cynomolgus); test: SPR (Biacore)
T5 construct: extracellular domain; also called cyno TREM2
Protocol: (§2) Surface plasmon resonance (Biacore™ 8K instrument) was used to measure anti-TREM2 antibody affinities for human and cynomolgus TREM2 ECD. Anti-TREM2 antibodies were captured using Human Fab Capture Kit (GE Healthcare Life Sciences, Catalog No. 28958325) on a Biacore Series S CM5 sensor chip (GE Healthcare Life Sciences, Catalog No. 29149604). Serial 3-fold dilutions of recombinant human or cynomolgus TREM2 were injected at a flow rate of 30 μL/min. Antibody binding was monitored for 300 seconds, followed by monitoring of antibody dissociation for 600+seconds in HBS-EP+ running buffer (GE Healthcare Life Sciences, Catalog No. BR100669). The binding response was corrected by subtracting the RU value from a blank flow cell. A 1:1 Languir model of simultaneous fitting of kₒₙ and koff was used for kinetics analysis. […]

[4] = target: T2, His-tagged human TREM2 ECD; test: SPR (Biacore)
Protocol: as §2

[5] = target: T3, human TREM2 on the cell surface; test: flow cytometry, dose-titrated binding to HEK293-H6 cells
Protocol: After incubation, the cells were centrifuged and washed in FACS buffer (PBS+0.5% BSA) twice. Mixed cells were resuspended in FACS buffer with human Trustain FcX solution (Biolegend, Catalog No. 422302) at a density of 10⁶/mL per cell line. The mixed cell lines were seeded at 200,000 cells per well in a 96-well round-bottom plate and incubated for 20 minutes at room temperature. After incubation, the cells were centrifuged and incubated with anti-TREM2 antibodies of about 0-200 nM dose titration for 45 minutes on ice. After incubation, the cells were centrifuged and washed with FACS buffer three times. […] After incubation, the cells were washed with FACS buffer three times, resuspended in 100 μL of FACS buffer, and analyzed by flow cytometry (BD FACSCanto II, San Jose, Calif.), for which 30,000 events were obtained for each sample. Mean fluorescence intensity per cells were calculated by FlowJo software and used for generating dose response binding curve.
(§3) Sequence optimization was conducted by searching within CDR sequences for residues that are susceptible to chemical modification (e.g., asparagine deamidation motifs (NG), aspartic acid isomerization motifs (DS), and potential oxidation residues (tryptophan (W) and methionine (M)) and making amino acid substitutions with conservative and germline residues to remove such sequence liabilities. Humanized and sequence-optimized variants of anti-TREM2 antibodies were then analyzed for binding kinetics using Biacore and dose-titrated cell binding to HEK293-H6 cells (see, Example 1 for representative protocols).

[6] = target: T2, His-tagged human TREM2 ECD; test: SPR (Biacore); remark: listed apart in the source
Protocol: Surface plasmon resonance (Biacore™ 8K instrument) was used to measure anti-TREM2 antibody affinities for human and cynomolgus TREM2 ECD. Anti-TREM2 antibodies were captured using Human Fab Capture Kit (GE Healthcare Life Sciences, Catalog No. 28958325) on a Biacore Series S CM5 sensor chip (GE Healthcare Life Sciences, Catalog No. 29149604). Serial 3-fold dilutions of recombinant human or cynomolgus TREM2 were injected at a flow rate of 30 μL/min. Antibody binding was monitored for 300 seconds, followed by monitoring of antibody dissociation for 600+seconds in HBS-EP+ running buffer (GE Healthcare Life Sciences, Catalog No. BR100669). The binding response was corrected by subtracting the RU value from a blank flow cell. A 1:1 Languir model of simultaneous fitting of kₒₙ and koff was used for kinetics analysis.
as §3

| EC50 [1] [nM] | EC50 [2] [nM] | Kd [3] [nM] | Kd [4] [nM] | EC50 [5] [nM] | Kd [6] [nM] | Binder |
| --- | --- | --- | --- | --- | --- | --- |
| 32.6 | 81.6 | 14 | 5.9 | – | – | Reference antibody #1 (antibody, V domains shown) VH: EVQLVQSGAEVKKPGESLKISCKGSGHSFTNYWIAWVRQMPGKGLEWMGIIYPGDSDTRYSPSFQGQVTISADKSISTAYLQWSSLKASDTAVYFCARQRTFYYDSSGYFDYWGQGTLVTVSS VL: DIQMTQSPSSVSASVGDRVTITCRASQGISNWLAWYQQKPGKAPKLLIYAASSLQVGVPLRFSGSGSGTDFTLTISSLQPEDFATYYCQQADSFPRNFGQGTKLEIK |
| 7.4 | 6.5 | 9.2 | 4.3 | – | – | Reference antibody #2 (antibody, V domains shown) VH: EVQLVQSGAEVKKPGESLKISCKGSGYSFTSYWIAWVRQMPGKGLEWMGIIYPGDSDTRYSPSFQGQVTISADKSISTAYLQWSSLKASDTAMYFCARQRTFYYDSSDYFDYWGQGTLVTVSS VL: DIQMTQSPSSVSASVGDRVTITCRASQGISSWLAWYQQKPGKAPKLLIYAASSLQNGVPSRFSGSGSGTDFTLTISSLQPEDFATYFCQQADSFPRTFGQGTKLEIK |
| 0.29 | 0.28 | 1.5 | 1.4 | 0.44 | 4.8 | CL0020188-4 (antibody, V domains shown, Humanized variant of CL0020188 (hVH NG/3 m, hVL TG/graft); also called Clone CL0020188-4) VH: EVQLVESGGGLVQPGGSLRLSCAGSGFTFTDFYMSWVRQAPGKGPEWLSVIRNKANGYTAGYNPSVKGRFTISRDNSKNTLYLQMNSLRAEDTAVYYCARLTYGFDYWGQGTLVTVSS VL: DIVMTQTPLSLPVTPGEPASISCQSSKSLLHSTGKTYLNWYLQKPGQSPQLLIYWMSTRASGVPDRFSGSGSGTDFTLKISRVEAEDVGVYYCQQFLEYPFTFGQGTKVEIK |
| 0.75 | 0.72 | 2.8 | 3.3 | 0.68 | 10 | CL0020188-7 (antibody, V domains shown, Humanized variant of CL0020188 (hVH NA/graft, hVL TG/graft); also called Clone CL0020188-7) VH: EVQLVESGGGLVQPGGSLRLSCAASGFTFTDFYMSWVRQAPGKGLEWVSVIRNKANAYTAGYNPSVKGRFTISRDNSKNTLYLQMNSLRAEDTAVYYCARLTYGFDYWGQGTLVTVSS VL: DIVMTQTPLSLPVTPGEPASISCQSSKSLLHSTGKTYLNWYLQKPGQSPQLLIYWMSTRASGVPDRFSGSGSGTDFTLKISRVEAEDVGVYYCQQFLEYPFTFGQGTKVEIK |
| 1 | 49.4 | 9.3 | 0.63 | 0.37 | 0.44 | CL0020123-5 (antibody, V domains shown, Humanized variant of CL0020123 (hVH QGES/2 m, Vk graft); also called Clone CL0020123-5) VH: QVQLVQSGAEVKKPGASVKVSCKASGFSIEDFYIHWVRQAPGQGLEWMGWIDPEQGESKYAPKFQGRATITADTSTSTAYMELSSLRSEDTAVYYCHADHGNYGSTMDYWGQGTLVTVSS VL: DIQMTQSPSSLSASVGDRVTITCHASQHINVWLSWYQQKPGKAPKLLIYKASNLHTGVPSRFSGSGSGTDFTLTISSLQPEDFATYYCQQGQTYPRTFGQGTKVEIK |
| 0.54 | 16.9 | 9.4 | 0.08 | 0.19 | 0.15 | CL0020123-7 (antibody, V domains shown, Humanized variant of CL0020123 (hVH NGES/1 m, Vk graft); also called Clone CL0020123-7) VH: QVQLVQSGAEVKKPGASVKVSCKASGFSIEDFYIHWVRQAPGQGLEWMGWIDPENGESKYAPKFQGRVTITADTSTSTAYMELSSLRSEDTAVYYCHADHGNYGSTMDYWGQGTLVTVSS VL: DIQMTQSPSSLSASVGDRVTITCHASQHINVWLSWYQQKPGKAPKLLIYKASNLHTGVPSRFSGSGSGTDFTLTISSLQPEDFATYYCQQGQTYPRTFGQGTKVEIK |
| 7.25 | 33.7 | 9.2 | 8.7 | – | – | Reference antibody #3 (antibody, V domains shown) VH: QVQLVQSGAEVKKPGASVKVSCKASGYAFSSQWMNWVRQAPGQRLEWIGRIYPGGGDTNYAGKFQGRVTITADTSASTAYMELSSLRSEDTAVYYCARLLRNQPGESYAMDYWGQGTLVTVSS VL: DVVMTQSPDSLAVSLGERATINCRSSQSLVHSNRYTYLHWYQQKPGQSPKLLIYKVSNRFSGVPDRFSGSGSGTDFTLKISRVEAEDVGVYYCSQSTRVPYTFGQGTKLEIK |
